Assay results: patent publication US20220340682A1 (Sanofi, published 2022)
Substitutions are numbered along the chain they refer to.

T1: cCEACAM6, M. fascicularis CEACAM6 ECD (35-327) (Macaca fascicularis)
T1 construct: With 24 amino acid extension containing a His-Tag; also called cynomolgus CEACAM6
T1 chain: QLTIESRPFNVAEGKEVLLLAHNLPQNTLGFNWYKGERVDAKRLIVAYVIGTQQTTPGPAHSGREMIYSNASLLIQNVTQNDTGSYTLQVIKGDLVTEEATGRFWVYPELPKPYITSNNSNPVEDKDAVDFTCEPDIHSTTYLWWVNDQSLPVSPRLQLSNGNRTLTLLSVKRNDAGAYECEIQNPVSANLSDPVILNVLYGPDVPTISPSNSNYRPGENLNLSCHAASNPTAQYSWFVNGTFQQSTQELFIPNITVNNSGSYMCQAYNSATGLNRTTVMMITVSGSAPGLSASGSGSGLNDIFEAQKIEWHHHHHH

T2: hCEACAM5, human CEACAM5 ECD (35-685) (human, UniProt P06731 35-685)
T2 construct: produced in HEK293; also called human CEACAM5 protein; human CEACAM5 extracellular domain
T2 sequence: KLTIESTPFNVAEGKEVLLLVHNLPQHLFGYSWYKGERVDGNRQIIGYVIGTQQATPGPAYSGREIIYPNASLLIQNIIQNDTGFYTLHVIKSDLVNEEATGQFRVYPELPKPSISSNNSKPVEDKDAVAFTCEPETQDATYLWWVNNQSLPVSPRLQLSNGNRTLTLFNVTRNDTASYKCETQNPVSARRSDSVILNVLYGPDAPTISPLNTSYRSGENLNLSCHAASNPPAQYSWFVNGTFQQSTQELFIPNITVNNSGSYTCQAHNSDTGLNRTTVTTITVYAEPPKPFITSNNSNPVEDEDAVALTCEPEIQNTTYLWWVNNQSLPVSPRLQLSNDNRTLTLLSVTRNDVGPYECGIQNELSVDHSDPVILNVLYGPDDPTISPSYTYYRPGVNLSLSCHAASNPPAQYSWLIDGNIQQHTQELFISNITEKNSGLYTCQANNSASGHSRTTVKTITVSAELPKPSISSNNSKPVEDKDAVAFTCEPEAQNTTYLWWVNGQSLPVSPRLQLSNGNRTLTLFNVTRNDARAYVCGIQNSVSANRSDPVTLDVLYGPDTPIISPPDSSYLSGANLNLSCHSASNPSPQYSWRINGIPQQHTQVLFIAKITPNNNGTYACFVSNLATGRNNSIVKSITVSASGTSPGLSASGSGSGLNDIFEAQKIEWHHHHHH

T3: cCEACAM5, M. fascicularis CEACAM5 ECD (35-688) (Macaca fascicularis)
T3 construct: ECD followed by a 24 amino acid extension containing a His-Tag; also called cynomolgus CEACAM5; monkey CEACAM5
T3 chain: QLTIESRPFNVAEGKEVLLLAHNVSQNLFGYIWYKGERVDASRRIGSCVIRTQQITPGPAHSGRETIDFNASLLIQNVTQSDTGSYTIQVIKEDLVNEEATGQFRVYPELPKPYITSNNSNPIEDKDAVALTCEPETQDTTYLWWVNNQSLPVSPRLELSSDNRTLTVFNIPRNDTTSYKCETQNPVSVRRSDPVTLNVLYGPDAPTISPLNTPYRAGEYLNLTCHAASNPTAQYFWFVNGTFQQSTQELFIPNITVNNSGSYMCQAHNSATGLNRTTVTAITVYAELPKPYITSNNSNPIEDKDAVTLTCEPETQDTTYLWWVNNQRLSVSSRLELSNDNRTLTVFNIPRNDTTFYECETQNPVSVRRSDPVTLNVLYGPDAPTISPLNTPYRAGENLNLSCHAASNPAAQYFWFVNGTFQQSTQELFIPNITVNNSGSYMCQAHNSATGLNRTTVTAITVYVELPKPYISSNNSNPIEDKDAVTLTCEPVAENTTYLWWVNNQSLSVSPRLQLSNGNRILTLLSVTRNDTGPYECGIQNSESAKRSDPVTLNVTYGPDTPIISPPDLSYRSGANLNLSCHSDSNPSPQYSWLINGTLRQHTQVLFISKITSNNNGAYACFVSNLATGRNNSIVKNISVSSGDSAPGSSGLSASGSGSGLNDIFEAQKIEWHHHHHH

B1: huMAb2-3 (antibody, human IgG1, kappa, V domains shown)
VH: EVQLQESGPGLVKPGGSLSLSCAASGFVFSSYDMSWVRQTPERGLEWVAYISSGGGITYAPSTVKGRFTVSRDNAKNTLYLQMNSLTSEDTAVYYCAAHYFGSSGPFAYWGQGTLVTVSS
VL: DIQMTQSPASLSASVGDRVTITCRASENIFSYLAWYQQKPGKSPKLLVYNTRTLAEGVPSRFSGSGSGTDFSLTISSLQPEDFATYYCQHHYGTPFTFGSGTKLEIKR
notes: Humanized MAb2, human IgG1 / Ckappa; also called MAb2_VL1cVH1a-IgG1
B2: huMAb2-1 (antibody, V domains shown)
VH: B1 VH with G44R, A60F, V93I, S120A
VL: DIQMTQSPASLSASVGDTVTITCRASENIFSYLAWYQQKPGKSPKLLVYNTKTLAEGVPSRFSGSGSGTQFSLTISSLQPEDFGSYYCQHHYGTPFTFGSGTKLEIK
notes: Humanized MAb2 (VL1 + VH1) fused to human IgG1 and human Ckappa constant domains; also called MAb2_VL1VH1-IgG1; MAb2VL1VH1-IgG1
B3: huMAb2-4 (antibody, human IgG1, kappa, V domains shown)
VH: B1 VH with G44R, A60F, V93I, S120A
VL: B1 VL with R18T, D70Q, A84G, T85S
notes: Humanized MAb2, human IgG1 / Ckappa; also called MAb2_VL1d VH1-IgG1; MAb2_VL1dVH1-IgG1
B4: chMAb2 (antibody, human IgG1, kappa, V domains shown)
VH: EVQLQESGGVLVKPGGSLKLSCAASGFVFSSYDMSWVRQTPEKRLEWVAYISSGGGITYFPDTVQGRFTVSRDNAKNTLYLQMNSLKSEDTAIYYCAAHYFGSSGPFAYWGQGTLVTVSA
VL: B1 VL with D17E, R18T, P40Q, K45Q, R52K, D70Q, T74K, S76N, A84G, T85S
notes: Chimeric, human IgG1, Ck isotype; also called MAb2-IgG1; chimeric MAb2
B5: huMAb2-2 (antibody, V domains shown)
VH: B1 VH
VL: B2 VL with T18R, Q70D, G84A, S85T
notes: Humanized MAb2 (VL1a + VH1a) fused to human IgG1 and human Ckappa constant domains; also called MAb2_VL1aVH1a-IgG1; MA2_VL1aVH1a-IgG1
B6: antibody MAb4 (antibody, IgG1, V domains shown)
VH: EVQLVESGGGLVKPGGSLKLSCAASGFTFSSYDMSWVRQTPEKRLEWVAFISSYGGRTYYADTVKGRFTISRDNAKNTLYLQMSSLKSEDTAMFYCAAHYFGTSGPFAYWGQGTLVTVSA
VL: DIQMTQSPASLSASVGETVTITCRASENIYSYFAWYQQKQGKSPQLLVYNAKILAEGVPSRFSGSGSGTQFSLKINSLQPEDFGTYYCQHHYGIPFTFGSGTKLELK
notes: Murine monoclonal from hybridoma, IgG1, kappa
B7: antibody MAb5 (antibody, IgG1, V domains shown)
VH: ELQLVESGGVLVKPGGSLKLSCAASGFAFSSYDMSWVRQTPEKRLEWVTYINSGGGITYYPDTVKGRFTISRDNARNTLYLQMSSLKSEDTAIYYCTAHYFGSSGPFAYWGQGTLVTVSA
VL: B6 VL with F33L, I53T, A55T, T85S, I94T, L106I
notes: as for B6
B8: antibody MAb3 (antibody, IgG1, V domains shown)
VH: EVKLVESGGGLVKPGGSLTLPCAASGFTFSRYAMSWVRQTPEKRLEWVASISSGGDTYYPDSVKGRFTVSRDNARNILFLQMSSLRSEDTGMYYCARVNYYDSSFLDWWGQGTTLTVSS
VL: DIVMTQSQRFMSTLEGDRVSVTCKASQNVGTNVAWYQQKPGQSPKALIYSASYRYSGVPDRFTGSGSGTDFTLTISNVQSEDLAEYFCQQYNNYPLYTFGGGTKLEIK
notes: as for B6
B9: antibody MAb1 (antibody, IgG1, V domains shown)
VH: EVMLVESGGGLVKPGGSLKLSCAASGFTFSSYAMSWVRQTPEKRLEWVATISSGGSYIYYLDSVKGRFTISRDNAKNTLYLQMSSLRSEDTAMYYCARPAYYGNPAMDYWGQGTSVTVSS
VL: B8 VL with V3L, R9K, L14S, E15V, A46P, N93S

Target: T1, cCEACAM6, M. fascicularis CEACAM6 ECD …
Assay: ELISA

| percentage of binding compared to full binding with cynomolgus CEACAM5 [%] | Binder |
| --- | --- |
| 0.4 | B1 |
| 0.3 | B2 |
| 0.3 | B3 |
| 0.3 | B4 |
| 0.3 | B5 |

Target: T2, hCEACAM5, human CEACAM5 ECD (35-685)
Assay: ELISA, murine hybridoma mAb

| EC50 [nM] | Binder |
| --- | --- |
| 0.08 | B6 |
| 0.4 | B7 |
| 0.36 | B8 |

Target: T3, cCEACAM5, M. fascicularis CEACAM5 ECD …
Assay: ELISA, murine hybridoma mAb

| EC50 [nM] | Binder |
| --- | --- |
| 0.05 | B6 |
| 0.45 | B7 |
| 1.18 | B9 |
| 3.72 | B8 |

Target: T2, hCEACAM5, human CEACAM5 ECD (35-685)
Assay: SPR (BIAcore 2000), mAb captured by anti-human Fc, antigen injected 1-500 nM
Experimental: (§1) The binding kinetics of humanized anti-CEACAM5_MAb2 variants, compared with chimeric MAb2, to recombinant human CEACAM5 (hCEACAM5) and cynomolgus monkey CEACAM5 (cCEACAM5) were determined by surface plasmon resonance assay using a BlAcore 2000 (BlAcore Inc., Uppsala, N.J.).
(§2) Briefly, a CM5 BlAcore biosensor chip was docked into the instrument and activated with 70 μL of 1:1 NHS/EDC at room temperature. A mouse anti-ahuman Fc IgG1 (BlAcore # BR-1008-39) (50 μg/mL in […] acetate buffer, pH5) were immobilized on the activated chips in all flow cells. The immobilization was carried out at a flow rate of 10 μL/min up to saturation. The chip was then blocked by injection of 70 μL of ethanolamine-HCl, pH8.5, followed by one wash with 3M MgCl2. To measure the binding of anti-CEACAM5 mAbs to the human CEACAM5 protein or cynomolgus CEACAM5 protein, antibodies were used at 1-5 μg/mL in BlAcore running buffer (HBS-EP). Antigens (human CEACAM5 or cynomolgus CEACAM5) were injected from 1 to 500 nM. Following completion of the injection phase, dissociation was monitored in a BlAcore running buffer at the same flow rate for 600 sec. The surface was regenerated between injections using 2×5 μL MgCl2 3M (2×30s). Individual sensorgrams were analyzed using BlAevaluation software.

| Kd [nM] | Binder |
| --- | --- |
| 11.7 | B1 |
| 9.8 | B2 |
| 6.9 | B3 |
| 9.9 | B4 |
| 24.5 | B5 |

Target: T3, cCEACAM5, M. fascicularis CEACAM5 ECD …
Assay: as above
Experimental: as §1, §2

| Kd [nM] | Binder |
| --- | --- |
| 73.5 | B1 |
| 41.7 | B2 |
| 38.6 | B3 |
| 52.3 | B4 |
| 96 | B5 |
